Here are results for 78 sequences from the supplement of paper PMC10126150.

± gives the standard deviation of the averaged measurements.
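Also: ATP exposure 15 min at 22 °C before imaging.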

For this data set, the system named is ATP. The data set is described as follows: switch fluorescence ratio, 500 uM ATP over buffer (Cy3 cluster intensity, sum of 5 cycles each) (fold (ratio)); higher = stronger signal-on switching upon ATP binding; sequences stand for … in TCGTCGGCAGCGTCAGATGTGTATAAGAGACAGTTTTTTTTTTTTTTTTTTTTTTTTT…TC. The conditions noted are these: aptamer strand: ATP DNA aptamer (quencher-CACCTGGGGGAGTATTGCGGAGGAAGG + anchor), 100 nM annealed; ATP concentration: 500 uM. A digest of the protocol:
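Switching-strand clusters labelled with Cy3 on a modified Illumina MiSeq flow-cell were annealed to 100 nM quencher-labelled ATP aptamer, imaged in selection buffer, and re-imaged after 15 min with 500 uM ATP at 22 °C. This was done over five cycles with NaOH stripping and re-annealing in between. The fluorescence ratio is summed target-cycle over summed buffer-cycle Cy3 intensity per cluster, averaged per switch-domain sequence, excluding clusters outside 100-1000 RFU.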
TGGATAGCGC: the switch fluorescence ratio turned out to be 1.01 ± 0.011. The result for GGGTTGTAGT reads 1.02 ± 0.032; that for GTTAGAGGGA, 0.99589 ± 4.1e-05. Turning to GATAGGGGCT, the switch fluorescence ratio stood at 0.938 ± 0.042.

Turning to GGACACGATT, the switch fluorescence ratio worked out at 0.986 ± 0.051.

TTTCTTTGGG: the switch fluorescence ratio was determined as 0.998 ± 0.043.

On to AGGGGGCGAG, for which the switch fluorescence ratio was 0.988 ± 0.018.

On to AAAAGGTTAC, for which the switch fluorescence ratio is 1.06 ± 0.033. The result for AAAAAAAGCA reads 1.04 ± 0.05; that for ATAGATGGCC, 0.95 ± 0.056. As to AGATGGGTTT, the switch fluorescence ratio was 1.01 ± 0.044. The same measure for CATAACGTTA: 1.032 ± 0.0071; for CTTTGCGTTT: 1.02 ± 0.093. As to TGTGATAGAG, the switch fluorescence ratio was found to be 0.989 ± 0.029.

Turning to TCGGTCCCAG, the switch fluorescence ratio came to 1.03 ± 0.014.

With TCGGGGCCTT, the switch fluorescence ratio is 0.998 ± 0.033. The same measure for GAATTTCGGG: 0.996 ± 0.013; for TTGCGGCCTT: 1.09 ± 0.081. The same measure for GGGTGGGGG: 1.01 ± 0.033; for AGAGCCGGTG: 1 ± 0.041. The same measure for CGTTTTGTTG: 0.998 ± 0.014. Take ACTGGGGTAG: the switch fluorescence ratio stood at 1.02 ± 0.061. For CGTGTGGCGT, the switch fluorescence ratio was found to be 1.05 ± 0.016. Turning to TCTAAAGATT, the switch fluorescence ratio turned out to be 1.011 ± 0.0027. Consider TAGTTTTCTG, for which the switch fluorescence ratio is 0.982 ± 0.017.

In the case of GGTACGTATG, the switch fluorescence ratio was determined as 0.986 ± 0.036. The result for TCGGAGATCG reads 0.9443 ± 0.001; that for GGCTCATTGA, 0.984 ± 0.029; that for TGTTTGTTT, 1.03 ± 0.025. The result for ATCTAGGGTG reads 1.08 ± 0.012; that for GCCCTGCATG, 1.01 ± 0.052; that for TGGGAAAAAG, 0.972 ± 0.039.

For GGTTATGGGA, the switch fluorescence ratio was 0.996 ± 0.032. The same measure for GAGGGTCCGG: 0.991 ± 0.035.

For TATTGGGCAG, the switch fluorescence ratio turned out to be 1.01 ± 0.023.

ACCGCTCAGG: the switch fluorescence ratio was determined as 1.022 ± 0.0093. The same measure for TCGAGTCGGT: 1.02 ± 0.034. For the sequence CCCTCTATTC, the switch fluorescence ratio is 1.06 ± 0.03. Turning to GTTTTGATGG, the switch fluorescence ratio is 1 ± 0.019.

TACCAGTCGC: the switch fluorescence ratio was determined as 1.03 ± 0.026.

Regarding GTGACAGGTC, the switch fluorescence ratio was found to be 0.974 ± 0.038.

Turning to GGACTTGGGT, the switch fluorescence ratio is 0.9702 ± 0.0082. The result for GACTTGCTGG reads 0.9876 ± 0.0044; that for GTTTTAGTTT, 0.987 ± 0.037; that for TGTGGGGCAA, 1.05 ± 0.019. The result for AGTGTTTGTT reads 0.9995 ± 0.0052.

Take AAAACATAGC: the switch fluorescence ratio amounted to 0.965 ± 0.056. The same measure for TCGTAGAGGA: 0.995 ± 0.032.

With TTTGAGATAG, the switch fluorescence ratio was 1.02 ± 0.012. The result for GTGGAGAGGG reads 0.993 ± 0.038. As to GCTTTTTTTG, the switch fluorescence ratio amounted to 1.017 ± 0.0079. As for TTACTTGTTT, the switch fluorescence ratio turned out to be 1 ± 0.023.

Regarding TTAAGATATT, the switch fluorescence ratio was 0.9797 ± 0.0066. Turning to CTATCGTGGT, the switch fluorescence ratio was determined as 0.9554 ± 0.0033. Regarding TCTCGTCAGC, the switch fluorescence ratio came to 1.087 ± 0.0041. The same measure for TTAATATGCT: 0.997 ± 0.049; for GCAGCTGGCG: 1.04 ± 0.017; for GAAAAAAAGA: 1 ± 0.021. The same measure for GATTGTGGGG: 0.969 ± 0.015; for TGAGGGCAAG: 1.02 ± 0.022; for GCTGGGCGAT: 0.961 ± 0.032. The result for TTTAATTTGT reads 1 ± 0.019; that for GGGGCAAAGA, 1.02 ± 0.027. AGCCAGGATT: the switch fluorescence ratio was determined as 0.9722 ± 0.0083. With TTTCGTCATC, the switch fluorescence ratio stood at 1.66 ± 0.91. The result for TGCACATAGG reads 1.06 ± 0.016; that for TTTTGAGGCA, 1.02 ± 0.027; that for TGCATGAGCG, 1.02 ± 0.032. Turning to TAGCTGGCTG, the switch fluorescence ratio is 0.986 ± 0.043. The result for GCGATTATAT reads 0.969 ± 0.049; that for ATATGTTGAG, 1 ± 0.017; that for TTCCGGCAAA, 1.5 ± 0.7. The result for CGGGGATTCC reads 1.06 ± 0.031; that for TTGGTCTGGG, 1.01 ± 0.064. The result for AATTCCTGGT reads 1.04 ± 0.023. As to CGGGGAGACG, the switch fluorescence ratio turned out to be 0.929 ± 0.13. Regarding AATTAAACGA, the switch fluorescence ratio was found to be 1.036 ± 0.0068. The same measure for TGTGTCTGTT: 0.9933 ± 0.0025.
